In US5919635A (ZymoGenetics, Inc., priority 1995, dated 1999):

Tests used:
[1] = target: T1, rat liver membranes (glucagon receptor) (Rattus norvegicus, UniProt P30082); experiment: Competition binding / Scatchard analysis with ^125 I-glucagon on rat liver membranes; conditions: 30 minutes at 30° C., read-out: apparent Kd
T1 construct: Two batches of liver membranes were each prepared from approximately 80 gm of liver; from tissue; host or cells: rat liver membranes
Description: Membranes from the pLJ4 BHK transfectants were compared with rat liver membrane preparations for the ability to bind ^125 I-glucagon. Membranes were prepared essentially described by Rodbell et al. (J. Biol Chem. 246:1861-1871, 1971, which is incorporated by reference herein in its entirety). Two batches of liver membranes were each prepared from approximately 80 gm of liver from 12 to 16 decapitated young female rats. The livers were removed quickly and placed into an iced beaker. The livers were separated into ten-gram portions. The portions were minced with scissors, and connective tissue was removed during the mincing procedure. The portions were separately homogenized in a Dounce homogenizer. […] The concentration of the solution was adjusted to 44.0%+/-0.1% using 69% sucrose or water as measured by a refractometer (Bausch & Lomb, Rochester, N.Y.). […]
The supernatant was carefully decanted and discarded. […] The absorbance was read in 1 cm cuvettes to determine protein concentration. Protein concentration was determined using the formula: [formula] […]
To each tube 100 μl of 2× binding buffer; 20 μl of ^125 I-glucagon (Amersham); 20 μl of 1 mM NaHCO3; 20 μl 10 mM HOAc, 0.5% BSA (Novo Nordisk N/A, Bagsvaerd, Denmark); and 40 μl of distilled water were added. […] The supernatants from each sample were aspirated, and the pellets were counted.

rat glucagon receptor = target: T2, rat glucagon receptor (Rattus norvegicus, UniProt P30082); experiment: cAMP response of clone KZ6/rGR-DHFR-2 by cAMP [^125 I] scintillation proximity assay; assay type: cell-based; conditions: 10 minutes at 37° C., 10 μM IBMX, read-out: ED50 (the source's name)
T2 construct: pLJ4 contained an approximately 2 kb insert encoding a 485 amino acid protein; expressed in transfected cells; host or cells: BHK/KZ6-19-46 (BHK570 with CRE-luciferase plasmid KZ6), clone KZ6/rGR-DHFR-2
T2 sequence (P30082 27-485): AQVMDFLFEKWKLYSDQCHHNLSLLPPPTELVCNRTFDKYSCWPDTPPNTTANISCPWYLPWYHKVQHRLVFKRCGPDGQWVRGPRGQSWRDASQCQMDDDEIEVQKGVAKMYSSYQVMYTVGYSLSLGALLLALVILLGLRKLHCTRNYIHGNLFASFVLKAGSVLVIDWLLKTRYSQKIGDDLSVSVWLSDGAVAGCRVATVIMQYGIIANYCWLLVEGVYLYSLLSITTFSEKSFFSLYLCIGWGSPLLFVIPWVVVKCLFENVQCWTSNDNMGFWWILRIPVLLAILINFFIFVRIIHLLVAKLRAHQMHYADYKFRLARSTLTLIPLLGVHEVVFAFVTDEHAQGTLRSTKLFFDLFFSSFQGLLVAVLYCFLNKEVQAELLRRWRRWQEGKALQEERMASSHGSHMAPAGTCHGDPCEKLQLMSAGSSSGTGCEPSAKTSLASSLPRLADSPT
Description: Briefly, 100 μl of 2×10^5 cells per ml KZ6/rGR-DHFR-2 cells were plated into the wells of a multi-well culture dish and grown overnight in selection media.
The cells were incubated with the agonists for 10 minutes at 37° C., 5% CO2. Following incubation, the cells were lysed by the addition of 200 μl of boiling water to each well. After 15 minutes the supernatants were collected and diluted 1:5 or 1:40 in acetate buffer (cAMP [^125 I] Scintillation Proximity Assay System (Amersham)). Samples were acetylated using triethylamine and acetic anhydride according to the protocol provided by the manufacturer.
A 100 μl aliquot of each acetylated sample was combined with 75 μl of ^125 I-cAMP, 75 μl anti-succinyl cAMP antisera and 75 μl of donkey anti-rabbit IgG coupled SPA beads (all assay solutions provided in the cAMP [^125 I] Scintillation Proximity Assay System (Amersham)) in a well of an LKB T-tray. The trays were sealed and incubated overnight with continuous shaking on a rotary platform shaker at 200 rpm. The samples were counted in a 1205 BETAPLATE liquid scintillation counter (Pharmacia LKB Instruments Inc., Gaithersburg, Md.). A standard curve of 2-128 fmol acetylated cAMP was also run. Total ^125 I-cAMP bound and non-specific binding were also determined.

[2] = tested on: Human Glucagon Receptor (pLJ6') in BHK570 cells; experiment: In situ binding of iodinated glucagon, pLJ6'-transfected BHK570 clones
Description: To prepare the transfectants for the ^125 I-glucagon binding assay, the spent media were aspirated from the cells, and the cells were washed three times with cold (4° C.) PBS. After the final wash, the cells were covered with Binding Media (Table 2) and incubated for ten minutes at room temperature. The media were replaced with 0.5 ml of Binding Media containing 0.5 nM ^125 I-glucagon (Amersham receptor grade, specific activity 2000 Ci/mmole; Amersham). The cells were then rocked at 30° C. for one hour. […] The media were aspirated from the cells, and the cells were washed three times with cold (4° C.) PBS. After the final wash, the cells were fixed with 1 ml of 2.5% glutaraldehyde in PBS at room temperature for 20 minutes. The glutaraldehyde was removed, and the cells were rinsed three time with PBS. The slides were air dried for one hour at room temperature, dipped in liquid photographic emulsion (Eastman Kodak Co., Rochester, N.Y.) according the manufacturer's directions, and dried at room temperature in the dark for at least 30 minutes. The slides were then plated in a light-proof box for 72 hours at 4° C.
Transfected cells were selected in the presence of G418 until single colonies were visible. Single colonies were cloned using cloning cylinders.

T1 sequence (P30082 27-485): as above

glucagon: 29 amino acid hormone produced by the alpha cells of pancreatic islets; human glucagon (Sigma)
Kd [1]: 49 nM
EC50 (rat glucagon receptor): 0.25 nM
binding of glucagon by clones (in words) [2]: shown to bind glucagon
